Experimental data reported in publication PMC2196413 (The Journal of Cell Biology, 2001).

T1: GST fusion protein with the cytoplasmic domain of JAM (human, UniProt Q9Y624 260-299)
T1 chain (looked up): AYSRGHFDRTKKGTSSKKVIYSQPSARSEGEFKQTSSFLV


Target: T1, GST fusion protein with the cytoplasmic …
Assay: pull-down

Row | Kd | Binder
1 | 75 nM | MBP-PDZ1/2/3–PAR-3 (domain or fragment) MVKLVQVPNDGGPLGIHVVPFSARGGRTLGLLVKRLEKGGKAEQENLFHENDCIVRINDGDLRNRRFEQAQHMFRQAMRARVIWFHVVPAANKEQYEQLSQREMNNYSPGRFSPDSHCVANRSVANNAPQALPRAPRLSQPPEQLDAHPRLPHSAHASTKPPTAPALAPPNVLSTSVGSVYNTKRVGKRLNIQLKKGTEGLGFSITSRDVTIGGSAPIYVKNILPRGAAIQDGRLKAGDRLIEVNGVDLAGKSQEEVVSLLRSTKMEGTVSLLVFRQEEAFHPREMNAEPSQMQSPKETKAEDEDIVLTPDGTREFLTFEVPLNDSGSAGLGVSVKGNRSKENHADLGIFVKSIINGGAASKDGRLRVNDQLIAVNGESLLGKANQEAMETLRRSMSTEGNKRGMIQ
2 | 110 nM | MBP fusion protein with NH2-terminal half of ZO-1 (domain or fragment) MSARAAAAKSTAMEETAIWEQHTVTLHRAPGFGFGIAISGGRDNPHFQSGETSIVISDVLKGGPAEGQLQENDRVAMVNGVSMDNVEHAFAVQQLRKSGKNAKITIRRKKKVQIPVSHPDPEPVSDNEDDSYDEEVHDPRAGRGALANRRSEKSWARDRSASRERSLSPRSDRRSVASSQPAKPTKVTLVKSRKNEEYGLRLASHIFVKEISQDSLAARDGNIQEGDVVLKINGTVTENMSLTDAKTLIERSKGKLKMVVQRDERATLLNVPDLSDSIHSANASERDDISEIQSLASDHSGRSHDRPPRRSQSRSPDQRSEPSDHSTQSPQQPSNGSLRSREEERMSKPGAISTPVKHVDDHPPKAVEEVTVEKNEKQTPTLPEPKPVYAQVGQPDVDLPVSPSDGALPNSAHEDGILRPSMKLVKFRKGDSVGLRLAGGNDVGIFVAGVLEDSPAAKEGLEEGDQILRVNNVDFTNIIREEAVLFLLDLPKGEEVTILAQKKKDVYRRIVESDVGDSFYIRTHFEYEKESPYGLSFNKGEVFRVVDTLYNGKLGSWLAIRIGKNHKEVERGIIPNKNRAEQLASVQYTLPKTAGGDRADFWRFRGLRSSKRNLRKSREDLSAQPVQTKFPAYERVVLREAGFLRPVTIFGPIADVAREKLAREEPDIYQIAKSEPRDAGTDHRSSGIIRLHTIKQIIDQDKHALLDVTPNAVDRLNYAQWYPIVVFLNPDSKQGVKTMRMRLCPESRKSARKLYERSHKLRKNNHHLFTTTINLNSMNDGWYGALKEAIQQQQNQLVWVSEGKADGATSDDLDLHDDRLSYLSAPGSEYSMYSTDSRHTSDYEDTDTEGGAYTDQELDETL
